One block for each molecule: values may come before it.
What was measured:
[1] = biological target: Full extracellular domain of mouse amyloid precursor protein (mouse) (UniProt P12023); experiment: SEC
DR6-Fc fusion = biological target: T1, DR6-Fc fusion (UniProt Q9EPU5 42-349); experiment: BLI
T1 sequence (looked up): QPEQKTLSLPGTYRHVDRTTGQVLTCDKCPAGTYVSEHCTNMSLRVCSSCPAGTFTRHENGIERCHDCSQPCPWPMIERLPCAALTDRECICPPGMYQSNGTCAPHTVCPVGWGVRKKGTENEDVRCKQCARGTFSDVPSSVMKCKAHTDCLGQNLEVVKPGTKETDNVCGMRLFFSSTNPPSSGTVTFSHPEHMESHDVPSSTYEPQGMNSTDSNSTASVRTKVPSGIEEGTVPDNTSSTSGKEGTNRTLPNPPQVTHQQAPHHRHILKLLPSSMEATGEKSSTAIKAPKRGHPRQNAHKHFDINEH

stoichiometry N [1]: 2
Molecule: Full extracellular domain of mouse amyloid precursor protein (from UniProt P12023-2 18-596) (domain or fragment)

Kd (DR6-Fc fusion): 85 nM
B1: AP-APP-E2 (amino acids 287-506), wild type (domain or fragment, UniProt P12023-2 287-506, looked up)
chain: VRVPTTAASTPDAVDKYLETPGDENEHAHFQKAKERLEAKHRERMSQVMREWEEAERQAKNLPKADKKAVIQHFQEKVESLEQEAANERQQLVETHMARVEAMLNDRRRLALENYITALQAVPPRPHHVFNMLKKYVRAEQKDRQHTLKHFEHVRMVDPKKAAQIRSQVMTHLRVIYERMNQSLSLLYNVPAVAEEIQDEVDELLQKEQNYSDDVLANMI
